Measured values from US20120316071A1 (published 2012).
Blank lines part the entries; values can stand above or below the binder they belong to.

How the values were obtained:
[1] = biological target: T1, rHuman Notch-1/Fc Chimera, CF (R&D Systems Cat#3647-TK) (human, UniProt P46531 19-526); test: ECL (MSD) multispot binding assay, antigen spotted on plate, 20 nM Fab;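 also: purified Fab incubated 1 h at 20 °C on antigen-spotted plate, bound Fab revealed with TAG detection antibody, ECL read, antigen signal divided by same-well blank, ratio ≥4 counted as hit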
T1 construct: Bought recombinant protein; Fc part of the bought chimera not given

[2] = biological target: T2, rHuman CD44/Fc Chimera, CF (R&D Systems Cat#3660-CD) (human, UniProt P16070 21-220); test: as above
T2 construct: Bought recombinant protein; Fc part of the bought chimera not given

[3] = biological target: T3, rHuman IGF-1 sR, (IGF-1 sR), CF (R&D Systems Cat#391-GR) (human, UniProt P08069 31-932); test: as above
T3 construct: Bought recombinant soluble receptor; also called insulin-like growth factor-1 soluble receptor

[4] = biological target: T4, rHuman P-Cadherin/Fc Chimera, CF (R&D Systems Cat#861-PC) (human, UniProt P22223 108-654); test: as above
T4 construct: Bought recombinant protein; Fc part of the bought chimera not given

[5] = biological target: T5, Recombinant Human DLL4 (R&D Systems Cat#1506-D4/CF) (human, UniProt Q9NR61 27-524); test: as above
T5 construct: Bought recombinant protein; also called delta-like protein 4; rHuman DLL4

[6] = biological target: T6, rHuman ErbB2/Fc Chimera, CF (R&D Systems Cat#1129-ER) (human, UniProt P04626 23-652); test: as above
T6 construct: Bought reagent; also called human epidermal growth factor 2 receptor; Fc part of the bought chimera not given

[7] = biological target: T7, rHuman CD44/Fc Chimera, CF (R&D Systems Cat#3660-CD) (human, UniProt P16070 21-220); test: as above
T7 construct: Bought reagent; Fc part of the bought chimera not given

[8] = biological target: T8, rHuman IGF-1 sR, CF (R&D Systems Cat#391-GR) (human, UniProt P08069 31-932); test: as above
T8 construct: Bought soluble receptor; also called insulin-like growth factor-1 soluble receptor

[9] = biological target: T9, rHuman P-Cadherin/Fc Chimera, CF (R&D Systems Cat#861-PC) (human, UniProt P22223 108-654); test: as above
T9 construct: Bought reagent; Fc part of the bought chimera not given

[10] = biological target: T10, rHuman Erythropoietin R/Fc Chimera, CF (R&D Systems Cat#963-ER) (human, UniProt P19235 25-250); test: as above
T10 construct: Bought reagent; also called EPO R; EPO R/Fc; Fc part of the bought chimera not given
T10 sequence (looked up): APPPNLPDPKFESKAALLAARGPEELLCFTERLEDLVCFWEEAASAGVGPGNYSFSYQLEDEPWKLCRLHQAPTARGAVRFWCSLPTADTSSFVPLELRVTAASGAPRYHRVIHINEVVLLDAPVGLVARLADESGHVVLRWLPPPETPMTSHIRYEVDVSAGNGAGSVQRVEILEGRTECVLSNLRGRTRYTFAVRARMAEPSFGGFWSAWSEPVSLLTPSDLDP

[11] = biological target: T11, Recombinant Human DLL4 (R&D Systems Cat#1506-D4/CF) (human, UniProt Q9NR61 27-524); test: as above; remark: listed apart in the source
T11 construct: Bought recombinant protein; also called delta-like protein 4; rHuman DLL4

[12] = biological target: T12, Recombinant Human DLL4 (R&D Systems Cat#1506-D4/CF) (human, UniProt Q9NR61 27-529); test: surface plasmon resonance, Fab against recombinant human DLL4; standard deviation in parentheses
T12 construct: Bought recombinant protein; also called rHuman DLL4; delta-like protein 4

Recombinant Human DLL4 [13] = biological target: T13, Recombinant Human DLL4 (human, UniProt Q9NR61 27-524); test: ECL (MSD) 96-well plate assay, DLL4 coated at 30 ug/mL, Fab 0.1 uM; signal over blank
T13 construct: Bought recombinant human DLL4 (R&D Systems Cat#1506-D4/CF), coated on the plate; also called delta-like protein 4; rHuman DLL4

Recombinant Human DLL4 [14] = biological target: T13, Recombinant Human DLL4; test: ECL (MSD) 96-well plate assay, DLL4 coated at 15 ug/mL, Fab 0.02 uM; signal over blank
[15] = biological target: T14, rHuman P-Cadherin/Fc Chimera, CF (R&D Systems Cat#861-PC) (human, UniProt P22223 108-654); test: ECL multispot (MSD) binding assay, antigen spotted on plate, Fab 0.04 uM;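 also: purified Fab incubated 1 h at 20 °C on antigen spots, detected via TAG-labelled antibody, ECL read against each well's blank, with signal-to-blank of at least 4 scored as binder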
T14 construct: Bought recombinant protein; Fc part of the bought chimera not given

[16] = biological target: T15, Recombinant Human DLL4 (R&D Systems Cat#1506-D4/CF) (human, UniProt Q9NR61 27-524); test: as above
T15 construct: Bought recombinant protein; also called delta-like protein 4; rHuman DLL4

Signal/Noise (Recombinant Human DLL4 [13]): 47.8
Signal/Noise (Recombinant Human DLL4 [14]): 25.6
B4: Fab VH5-51_IGHD5-18*01>3_IGHJ4*01 G104S & V3-4_IGLJ1*01 (Fab, V domains shown)
VH: EVQLVQSGAEVKKPGESLKISCKGSGYSFTSYWIGWVRQMPGKGLEWMGIIYPGDSDTRYSPSFQGQVTISADKSISTAYLQWSSLKASDTAMYYCARRGYSYSYDYFDYWGQGTLVTVSS
VL: QTVVTQEPSFSVSPGGTVTLTCGLSSGSVSTSYYPSWYQQTPGQAPRTLIYSTNTRSSGVPDRFSGSILGNKAALTITGAQADDESDYYCVLYMGSGISYVFGTGTKVTVL
notes: Fab; VH-CH1 (His6/Flag, Plasmid A) and VL-lambda CL (Plasmid E)

Signal/Noise (Recombinant Human DLL4 [13]): 29.1
Signal/Noise (Recombinant Human DLL4 [14]): 12.3
B5: Fab VH5-51_IGHD5-18*01>3_IGHJ4*01 G104M & V3-4_IGLJ1*01 (Fab, V domains shown)
VH: EVQLVQSGAEVKKPGESLKISCKGSGYSFTSYWIGWVRQMPGKGLEWMGIIYPGDSDTRYSPSFQGQVTISADKSISTAYLQWSSLKASDTAMYYCARRGYSYMYDYFDYWGQGTLVTVSS
VL: QTVVTQEPSFSVSPGGTVTLTCGLSSGSVSTSYYPSWYQQTPGQAPRTLIYSTNTRSSGVPDRFSGSILGNKAALTITGAQADDESDYYCVLYMGSGISYVFGTGTKVTVL
notes: as for B4

Signal/Noise (Recombinant Human DLL4 [13]): 6.7
Signal/Noise (Recombinant Human DLL4 [14]): 2.6
B6: Fab VH5-51_IGHD5-18*01>3_IGHJ4*01 G104A & V3-4_IGLJ1*01 (Fab, V domains shown)
VH: EVQLVQSGAEVKKPGESLKISCKGSGYSFTSYWIGWVRQMPGKGLEWMGIIYPGDSDTRYSPSFQGQVTISADKSISTAYLQWSSLKASDTAMYYCARRGYSYAYDYFDYWGQGTLVTVSS
VL: QTVVTQEPSFSVSPGGTVTLTCGLSSGSVSTSYYPSWYQQTPGQAPRTLIYSTNTRSSGVPDRFSGSILGNKAALTITGAQADDESDYYCVLYMGSGISYVFGTGTKVTVL
notes: as for B4

Signal/Noise (Recombinant Human DLL4 [13]): 17.6
Signal/Noise (Recombinant Human DLL4 [14]): 9.1
B7: Fab VH5-51_IGHD5-18*01>3_IGHJ4*01 G104K & V3-4_IGLJ1*01 (Fab, V domains shown)
VH: EVQLVQSGAEVKKPGESLKISCKGSGYSFTSYWIGWVRQMPGKGLEWMGIIYPGDSDTRYSPSFQGQVTISADKSISTAYLQWSSLKASDTAMYYCARRGYSYKYDYFDYWGQGTLVTVSS
VL: QTVVTQEPSFSVSPGGTVTLTCGLSSGSVSTSYYPSWYQQTPGQAPRTLIYSTNTRSSGVPDRFSGSILGNKAALTITGAQADDESDYYCVLYMGSGISYVFGTGTKVTVL
notes: as for B4

Signal/Noise (Recombinant Human DLL4 [13]): 42.5
Signal/Noise (Recombinant Human DLL4 [14]): 23.2
B9: Fab VH5-51_IGHD5-18*01>3_IGHJ4*01 G104D & V3-4_IGLJ1*01 (Fab, V domains shown)
VH: EVQLVQSGAEVKKPGESLKISCKGSGYSFTSYWIGWVRQMPGKGLEWMGIIYPGDSDTRYSPSFQGQVTISADKSISTAYLQWSSLKASDTAMYYCARRGYSYDYDYFDYWGQGTLVTVSS
VL: QTVVTQEPSFSVSPGGTVTLTCGLSSGSVSTSYYPSWYQQTPGQAPRTLIYSTNTRSSGVPDRFSGSILGNKAALTITGAQADDESDYYCVLYMGSGISYVFGTGTKVTVL
notes: as for B4

Kd [12]: 38 µM
B11: Fab VH6-1_IGHD3-3*01_IGHJ4*01 & V4-3_IGLJ4*01 (Fab, V domains shown)
VH: QVQLQQSGPGLVKPSQTLSLTCAISGDSVSSNSAAWNWIRQSPSRGLEWLGRTYYRSKWYNDYAVSVKSRITINPDTSKNQFSLQLNSVTPEDTAVYYCAREYYDFWSGYYTDYFDYWGQGTLVTVSS
VL: QPVLTQPTSLSASPGASARLTCTLRSGINLGSYRIFWYQQKPESPPRYLLSYYSDSSKHQGSGVPSRFSGSKDASSNAGILVISGLQSEDEADYYCMIWHSSASFVFGGGTQLIIL
notes: Germline Fab made in E. coli: VH in Plasmid A (CH1, His6 and Flag tags), lambda VL in Plasmid E (lambda CL)

Continued, binder first:

B1: Fab VH3-23_IGHD2-21*01>3_IGHJ6*01 H100E/S108P/Y113G/Y111H & V2-13_IGLJ2*01 (Fab, V domains shown)
VH: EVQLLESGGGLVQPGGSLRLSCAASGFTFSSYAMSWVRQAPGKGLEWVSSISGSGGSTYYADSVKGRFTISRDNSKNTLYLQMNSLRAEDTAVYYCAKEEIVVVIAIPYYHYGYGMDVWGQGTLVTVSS
VL: SSELTQDPAVSVALGQTVRITCQGDSLRSYYASWYQQKPGQAPVLVIYGKNNRPSGIPDRFSGSSSGNTASLTITGAQAEDEADYYCNSRDSSGNHLVVFGGGTKLTVL
notes: Fab made in E. coli: VH joined to CH1 (with His and Flag tags, plasmid A) and VL to lambda CL (plasmid E); also called EPG Y111H
ECL signal/blank ratio [1]: 1.5
ECL signal/blank ratio [2]: 1.3
ECL signal/blank ratio [3]: 1.2
ECL signal/blank ratio [4]: 7.7
ECL signal/blank ratio [5]: 1.6

B2: Fab VH3-23_IGHD2-21*01>3_IGHJ6*01 H100E/S108P/Y113G Y114H & V2-13_IGLJ2*01 (Fab, V domains shown)
VH: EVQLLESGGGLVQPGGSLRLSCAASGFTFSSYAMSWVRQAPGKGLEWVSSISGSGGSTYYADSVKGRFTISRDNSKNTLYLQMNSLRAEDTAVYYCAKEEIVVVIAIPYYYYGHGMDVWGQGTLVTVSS
VL: SSELTQDPAVSVALGQTVRITCQGDSLRSYYASWYQQKPGQAPVLVIYGKNNRPSGIPDRFSGSSSGNTASLTITGAQAEDEADYYCNSRDSSGNHLVVFGGGTKLTVL
notes: Tested as Fab made in E. coli (VH-CH1 with His and Flag tags; lambda CL); also called EPG Y114H
ECL multispot value [6]: 12.5
ECL multispot value [7]: 1.8
ECL multispot value [8]: 1.4
ECL multispot value [9]: 27
ECL multispot value [10]: 120
ECL multispot value [11]: 2.3

B3: Fab VH5-51_IGHD5-18*01>3_IGHJ4*01 & V3-4_IGLJ1*01 (Fab, V domains shown)
VH: EVQLVQSGAEVKKPGESLKISCKGSGYSFTSYWIGWVRQMPGKGLEWMGIIYPGDSDTRYSPSFQGQVTISADKSISTAYLQWSSLKASDTAMYYCARRGYSYGYDYFDYWGQGTLVTVSS
VL: QTVVTQEPSFSVSPGGTVTLTCGLSSGSVSTSYYPSWYQQTPGQAPRTLIYSTNTRSSGVPDRFSGSILGNKAALTITGAQADDESDYYCVLYMGSGISYVFGTGTKVTVL
notes: as for B11
Kd [12]: 4.8 µM

B8: Fab VH5-51_IGHD5-18*01>3_IGHJ4*01 G100K/G104T (H:KT) & V3-4_IGLJ1*01 G97A (Fab, V domains shown)
VH: EVQLVQSGAEVKKPGESLKISCKGSGYSFTSYWIGWVRQMPGKGLEWMGIIYPGDSDTRYSPSFQGQVTISADKSISTAYLQWSSLKASDTAMYYCARRKYSYTYDYFDYWGQGTLVTVSS
VL: QTVVTQEPSFSVSPGGTVTLTCGLSSGSVSTSYYPSWYQQTPGQAPRTLIYSTNTRSSGVPDRFSGSILGNKAALTITGAQADDESDYYCVLYMGSAISYVFGTGTKVTVL
notes: Fab; Expressed from Plasmid A (CH1, His6 and Flag tags) and Plasmid E (lambda CL); also called KT & G97A
ECL signal [15]: 474
ECL signal [16]: 14900

B10: Fab VH1-46_IGHD3-10*01_IGHJ4*01 & L12_IGKJ1*01 (Fab, V domains shown)
VH: QVQLVQSGAEVKKPGASVKVSCKASGYTFTSYYMHWVRQAPGQGLEWMGIINPSGGSTSYAQKFQGRVTMTRDTSTSTVYMELSSLRSEDTAVYYCAREYYYGSGSYYNDYFDYWGQGTLVTVSS
VL: not shown
notes: Germline Fab made in E. coli: VH in Plasmid A (CH1, His6 and Flag tags), kappa VL in Plasmid C (kappa CL)
Kd [12]: 0.5 µM
koff [12]: 0.29 s⁻¹
kon [12]: 500000 M⁻¹ s⁻¹
